Assays:
[1] = tested on: TALE1 synthetic transcription factor (TAL DNA-binding domain targeting ZmWUS promoter + activation domain) (synthetic (Xanthomonas TAL effector)?); assay: cell_activity; settings: endogenous WUS mRNA by qRT-PCR in maize protoplasts, 24 h
[2] = tested on: TALE5 synthetic transcription factor (TAL DNA-binding domain targeting ZmBBM promoter + activation domain) (synthetic (Xanthomonas TAL effector)?); assay: cell_activity; settings: endogenous BBM mRNA by qRT-PCR in maize protoplasts, 24 h; text p298 cites SEQ ID NO: 218 but FIG. 3 legend assigns TALE4-6 to SEQ 270-272

Row | Sequence | activity (fold induction) [1] | activity (fold induction) [2]
1 | TCCCGCTCTCGCTCTCTGC (double strand) [TALE1 target site in ZmWUS promoter] | 60 | 
2 | TCCTCGAATCATTCTAAGAAGAAAC (double strand) [TALE5 target site in ZmBBM promoter] |  | 490
